From patent US20210220451A1
Read-outs that look alike come from different tables or passages of the source.

T1: 33-mer toxic gluten peptide from alpha-gliadin
T1 sequence: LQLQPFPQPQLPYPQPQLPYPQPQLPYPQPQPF

T2: 33-mer toxic gluten peptide from alpha-gliadin
T2 chain: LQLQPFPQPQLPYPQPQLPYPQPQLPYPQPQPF


Assays:
[1] = tested on: T1, 33-mer toxic gluten peptide from alpha-gliadin
[2] = molecular target: 33-mer toxic gluten peptide from alpha-gliadin; experiment: cell-based or functional assay
[3] = molecular target: T2, 33-mer toxic gluten peptide from …

| Molecule | Relative Peak Area (%) of undigested 33-mer by LC-MS after 0.5 h at 100:1 substrate:enzyme, percent of the control without enzyme [3] [%] | also measured |
| --- | --- | --- |
| pepsin |  | Relative Peak Area (%) of undigested 33-mer by LC-MS after 0.5 h at 100:1 substrate:enzyme, percent of the control without enzyme [1]: 93.2% |
| high molecular weight fraction (>approx. 10 kDa) of Nepenthes extract (fluid) |  | Relative Peak Area (%) of undigested 33-mer by LC-MS after 0.5 h at 100:1 substrate:enzyme, percent of the control without enzyme [2]: 0% |
| recombinant nepenthesin II (from N. gracilis, acid-activated) (protein) QSSSGIETPVYAGDGEYLMNVAIGTPDSSFSAIMDTGSDLIWTQCEPCTQCFSQPTPIFNPQDSSSFSTLPCESQYCQDLPSETCNNNECQYTYGYGDGSTTQGYMATETFTFETSSVPNIAFGCGEDNQGFGQGNGAGLIGMGWGPLSLPSQLGVGQFSYCMTSYGSSSPSTLALGSAASGVPEGSPSTTLIHSSLNPTYYYITLQGITVGGDNLGIPSSTFQLQDDGTGGMIIDSGTTLTYLPQDAYNAVAQAFTDQINLPTVDESSSGLSTCFQQPSDGSTVQVPEISMQFDGGVLNLGEQNILISPAEGVICLAMGSSSQLGISIFGNIQQQETQVLYDLQNLAVSFVPTQCGAS | 34 |  |
| recombinant nepenthesin I (from N. gracilis, acid-activated) (protein) APTHSTSRTALNHRHEAKVTGFQIMLEHVDSGKNLTKFQLLERAIERGSRRLQRLEAMLNGPSGVETSVYAGDGEYLMNLSIGTPAQPFSAIMDTGSDLIWTQCQPCTQCFNQSTPIFNPQGSSSFSTLPCSSQLCQALSSPTCSNNFCQYTYGYGDGSETQGSMGTETLTFGSVSIPNITFGCGENNQGFGQGNGAGLVGMGRGPLSLPSQLDVTKFSYCMTPIGSSTPSNLLLGSLANSVTAGSPNTTLIQSSQIPTFYYITLNGLSVGSTRLPIDPSAFALNSNNGTGGIIIDSGTTLTYFVNNAYQSVRQEFISQINLPVVNGSSSGFDLCFQTPSDPSNLQIPTFVMHFDGGDLELPSENYFISPSNGLICLAMGSSSQGMSIFGNIQQ | 78.7 |  |
